Results reported in article PMC3905715 (Nature Communications, 2013).
Positions count from the first letter of the chain named. Names may count otherwise.

T1: human LGR5 ectodomain (hLGR5ecto, R32-G557), immobilised for SPR (human, UniProt O75473 32-557)
T1 construct: LGR5 ectodomain, human, residues R32-G557; the methods describe biotinylated variants on streptavidin
T1 sequence (looked up): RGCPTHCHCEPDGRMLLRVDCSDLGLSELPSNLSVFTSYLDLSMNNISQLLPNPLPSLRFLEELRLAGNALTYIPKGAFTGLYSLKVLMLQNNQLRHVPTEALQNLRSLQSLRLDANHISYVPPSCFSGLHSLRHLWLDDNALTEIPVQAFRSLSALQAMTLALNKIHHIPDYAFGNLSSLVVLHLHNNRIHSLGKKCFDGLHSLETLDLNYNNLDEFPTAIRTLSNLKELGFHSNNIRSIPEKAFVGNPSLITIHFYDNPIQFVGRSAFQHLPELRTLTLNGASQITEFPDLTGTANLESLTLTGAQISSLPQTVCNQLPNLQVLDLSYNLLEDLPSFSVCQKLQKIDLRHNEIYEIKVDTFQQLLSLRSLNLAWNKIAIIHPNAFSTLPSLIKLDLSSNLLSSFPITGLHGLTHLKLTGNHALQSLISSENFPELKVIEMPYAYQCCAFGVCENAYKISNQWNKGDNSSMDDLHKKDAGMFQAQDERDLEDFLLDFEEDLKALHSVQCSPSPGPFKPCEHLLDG

T2: human LGR5 ectodomain (hLGR5ecto, R32-G557), immobilised for SPR (human, UniProt O75473 32-557)
T2 chain: T1 sequence (looked up)

T3: mouse Rspo2 Fu1–Fu2 (mRspo2Fu1–Fu2, N37 or I39-G144), His10
T3 chain: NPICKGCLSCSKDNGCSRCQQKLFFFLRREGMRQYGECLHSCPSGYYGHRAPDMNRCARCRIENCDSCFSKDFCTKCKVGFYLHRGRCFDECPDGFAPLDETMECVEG

T4: mZNRF3ecto M98T (Mus musculus)
T4 chain: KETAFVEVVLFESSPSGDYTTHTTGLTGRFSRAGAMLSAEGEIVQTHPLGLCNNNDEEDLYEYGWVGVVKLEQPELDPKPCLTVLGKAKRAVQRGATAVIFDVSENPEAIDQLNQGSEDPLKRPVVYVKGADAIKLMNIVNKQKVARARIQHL

T5: preformed hLGR5ecto,lr × mRspo2 Fu1–Fu2 complex, O75473
T5 chain 1: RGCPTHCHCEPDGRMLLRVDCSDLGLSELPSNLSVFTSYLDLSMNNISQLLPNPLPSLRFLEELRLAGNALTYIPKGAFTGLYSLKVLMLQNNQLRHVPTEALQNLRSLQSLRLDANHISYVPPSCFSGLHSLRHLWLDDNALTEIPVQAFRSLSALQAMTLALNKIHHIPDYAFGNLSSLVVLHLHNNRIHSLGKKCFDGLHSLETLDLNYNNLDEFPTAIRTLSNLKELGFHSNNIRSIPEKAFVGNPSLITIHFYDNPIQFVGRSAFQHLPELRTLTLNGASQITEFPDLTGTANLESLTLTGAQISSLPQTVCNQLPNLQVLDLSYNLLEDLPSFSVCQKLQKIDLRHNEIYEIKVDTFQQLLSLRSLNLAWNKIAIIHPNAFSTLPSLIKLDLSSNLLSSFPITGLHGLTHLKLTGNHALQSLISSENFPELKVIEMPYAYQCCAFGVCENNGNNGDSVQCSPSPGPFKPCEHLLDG
T5 chain 2: T3 chain

T6: hRSPO1 (Homo sapiens (Human), UniProt Q2MKA7)
T6 chain: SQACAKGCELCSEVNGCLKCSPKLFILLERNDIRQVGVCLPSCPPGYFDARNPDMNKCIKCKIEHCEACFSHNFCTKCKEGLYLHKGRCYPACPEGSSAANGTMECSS

T7: hRSPO3 (Homo sapiens (Human), UniProt Q9BXY4)
T7 chain: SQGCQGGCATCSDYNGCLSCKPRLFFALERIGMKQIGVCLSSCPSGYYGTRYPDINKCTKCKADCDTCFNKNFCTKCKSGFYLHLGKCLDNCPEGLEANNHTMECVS

B1: mouse Rspo4 Fu1–Fu2 (T29-Q136) (domain or fragment, UniProt Q8BJ73 29-136, looked up)
chain: TGLGGNCTGCVICSEENGCSTCQQRLFLFIRREGIRQYGKCVHDCPLGFFGIRGQEANRCKKCGATCESCFSQDFCIRCKRRFHLYKGKCLPSCPPGTLTHQSTRECQ
modifications: biotin at the C-terminal BirA recognition sequence (as immobilised ligand in Figure 4b)
notes: R-spondin 4, mouse, Fu1-Fu2, residues T29-Q136; also called mRspo4; mRspo4Fu1–Fu2
B2: mR42 (protein)
chain: TGLGGNCTGCVICSEENGCSTCQQRLFLFIRREGIRQYGKCVHDCPLGFFGIRGQEANRCKKCRIENCDSCFSKDFCTKCKVGFYLHRGRCFDECPDGFAPLDETMECVEG
modifications: Chimera read from its name as Rspo4 Fu1 + Rspo2 Fu2. Junction not printed: set by convention after the residue aligned with Rspo2 R95. Disulphides
B3: human RNF43 ectodomain (hRNF43ecto, Q44-L188), biotinylated, immobilised for SPR, Q68DV7 K108N (protein)
chain: QKAIIRVIPLKMDPTGKLNLTLEGVFAGVAEITPAEGKLMQSHPLYLCNASDDDNLEPGFISIVNLESPRRAPRPCLSLASKARMAGERGASAVLFDITEDRAAAEQLQQPLGLTWPVVLIWGNDAEKLMEFVYKNQKAHVRIEL
B4: human RNF43 ectodomain (hRNF43ecto, Q44-L188), biotinylated, immobilised for SPR, Q68DV7 L82S (protein)
chain: B3 chain with L39S, N65K
B5: mouse Rspo2 Fu1–Fu2 (mRspo2Fu1–Fu2, N37 or I39-G144), His10 (domain or fragment)
chain: T3 chain
B6: mouse Rspo2 Fu1–Fu2 (mRspo2Fu1–Fu2, N37 or I39-G144), His10 (domain or fragment)
chain: T3 chain
modifications: biotin at C-terminal BirA tag, immobilised; disulphide
B7: human Rspo3 Fu1–Fu2 (R32-H147), immobilised for SPR (domain or fragment, UniProt Q9BXY4 32-147, looked up)
chain: RMHPNVSQGCQGGCATCSDYNGCLSCKPRLFFALERIGMKQIGVCLSSCPSGYYGTRYPDINKCTKCKADCDTCFNKNFCTKCKSGFYLHLGKCLDNCPEGLEANNHTMECVSIVH
modifications: biotin at the C-terminal BirA recognition sequence
notes: R-spondin 3, human, Fu1-Fu2, residues R32-H147; also called hRspo3
B8: mouse ZNRF3 ectodomain (K53-L205), biotinylated, immobilised for SPR, Q5SSZ7 E92N; E94T (protein)
chain: T4 chain with E40N, E42T, T46M
B9: mouse ZNRF3 ectodomain (K53-L205), biotinylated, immobilised for SPR, Q5SSZ7 S90C (protein)
chain: T4 chain with S38C, T46M
B10: mZNRF3ecto S90C (spontaneously disulphide cross-linked dimer) (domain or fragment, mouse, UniProt Q5SSZ7 53-205, looked up)
chain: T4 chain with S38C, T46M
notes: ZNRF3 ectodomain, mouse; limits K53-L205 as stated for mZNRF3ecto; probably as m1; also called S90C variant of mZNRF3_(ecto); predimerized mZNRF3_(ecto) S90C
B11: mouse ZNRF3 ectodomain (mZNRF3ecto, K53-L205) (domain or fragment, UniProt Q5SSZ7 53-205, looked up)
chain: T4 chain with T46M
notes: ZNRF3 ectodomain, mouse, residues K53-L205; pHLsec vector; used for crystals, ultracentrifugation and as SPR analyte; also called wt mZNRF3_(ecto); source: HEK293T, secreted, purified (HisTrap, gel filtration)
B12: human Rspo1 Fu1–Fu2 (I32-S143), immobilised for SPR (domain or fragment, UniProt Q2MKA7 32-143, looked up)
chain: ISAEGSQACAKGCELCSEVNGCLKCSPKLFILLERNDIRQVGVCLPSCPPGYFDARNPDMNKCIKCKIEHCEACFSHNFCTKCKEGLYLHKGRCYPACPEGSSAANGTMECS
modifications: biotin at the C-terminal BirA recognition sequence
notes: R-spondin 1, human, Fu1-Fu2, residues I32-S143; also called hRspo1

Assays:
[1] = target: Rspo Fu1–Fu2 chimera: Fu1 of Rspo4 with Fu2 of a 'strong' Rspo (mouse | not stated); test: SPR; binding of Rspo Fu1–Fu2 chimeras to ZNRF3ecto
[2] = target: T1, human LGR5 ectodomain (hLGR5ecto, …); test: SPR; binding of Rspo Fu1–Fu2 proteins and chimeras to hLGR5ecto; single dilution series; settings: both partners purified
[3] = target: B11; test: SPR; mZNRF3ecto as analyte, biotinylated Rspo variants immobilised on streptavidin; equilibrium, 25 °C, 10 mM HEPES/NaOH pH 7.5, 150 mM NaCl, 0.005% Tween20; Biacore T200; settings: both partners purified
[4] = target: T2, human LGR5 ectodomain (hLGR5ecto, …); test: SPR
[5] = target: T3, mouse Rspo2 Fu1–Fu2 (mRspo2Fu1–Fu2, N37 …); test: SPR; settings: chain shown with the change
mZNRF3ecto M98T = target: T4, mZNRF3ecto M98T; test: SPR
[6] = target: T5, preformed hLGR5ecto,lr × mRspo2 Fu1–Fu2 …; test: SPR; settings: chain shown with the change
[7] = target: the molecule itself; test: crystal structure; X-ray, sitting drop vapour diffusion; apo proteins and complexes in several crystal forms
[8] = target: T1, human LGR5 ectodomain (hLGR5ecto, …); test: SPR; hLGR5ecto (R32-G557) immobilised; injections of 10 μM solutions step by step, and saturation with the preformed mZNRF3ecto × mRSPO2 complex (single dilution series); settings: both partners purified
hRSPO1 = target: T6, hRSPO1; test: SPR equilibrium, RSPO Fu1-Fu2 immobilised
hRSPO3 = target: T7, hRSPO3; test: SPR equilibrium, RSPO Fu1-Fu2 immobilised

Molecule: mouse ZNRF3 ectodomain (mZNRF3ecto, K53-L205) (from UniProt Q5SSZ7 53-205) (domain or fragment)
- Kd [1]: 3600 nM

Molecule: B1
- binding result [2]: binds
- Kd [3]: 300000 nM
- Kd [4]: 73 nM

Molecule: B2
- Kd [4]: 240 nM

Molecule: B3
- Kd [5]: 62 nM

Molecule: B4
- Kd [5]: 78 nM

Molecule: B5
- Kd [4]: 14 nM

Molecule: B6
- Kd (mZNRF3ecto M98T): 1500 nM

Molecule: B7
- binding result [3]: binds

Molecule: B8
- Kd [6]: 3500 nM

Molecule: B9
- Kd [6]: 206 nM

Molecule: B10
- binding result [7]: binds

Molecule: B11
- binding result [8]: binds
- Kd (hRSPO1): 6800 nM
- Kd (hRSPO3): 60 nM

Molecule: B12
- binding result [3]: binds
